Reference: US10765761B2, “Nucleic acid condensing peptide, nucleic acid condensing peptide set, nucleic acid delivery carrier, nucleic acid delivery method, cell production method, cell detection method and kit” (KABUSHIKI KAISHA TOSHIBA, priority 2016, dated 2020)

Assays:
[1] = tested on: plasmid vector (pDNA); assay: Average particle diameter and Zeta potential of peptide-nucleic-acid complexes (zetasizer), Example 1; type: physicochemical; conditions: for characteristics of condensing the nucleic acid: judged from particle diameter and its dispersion (Table 2, FIGS. 4 and 5)
Protocol: The condensability of the nucleic acid by the peptide of the embodiment and the potential of the peptide-nucleic-acid complex were evaluated.
The peptides were each dissolved in 10 mM of HEPES (pH: 5.3) to prepare several peptide solutions having different peptide concentrations.
For the protamine, three peptide solutions were prepared to have peptide concentrations of: (1) 2.1 mg/ml, (2) 2.4 mg/ml and (3) 2.7 mg/ml. For the mHP-4, four peptide solutions were prepared to have peptide concentrations of: (4) 1.8 mg/ml, (5) 2.1 mg/ml, (6) 2.4 mg/ml and (7) 2.7 mg/ml. For the mHP-1, three peptide solutions were prepared to have peptide concentrations of: (8) 2.1 mg/ml, (9) 2.4 mg/ml and (10) 2.7 mg/ml. For the mHP-2, five peptide solutions were prepared to have peptide concentrations of: (11) 1.2 mg/ml, (12) 1.5 mg/ml, (13) 2.1 mg/ml, (14) 2.4 mg/ml and (15) 2.7 mg/ml. For the mHP-3, three peptide solutions were prepared to have peptide concentrations of: (16) 2.1 mg/ml, (17) 2.4 mg/ml and (18) 2.7 mg/ml. Further, plasmid vector (pDNA) was diluted with purified water to prepare a nucleic acid solution having a pDNA concentration of 3.0 mg/ml.
18 sets of nucleic acid solutions (90 μL) put in tubes were prepared and the peptide solutions (1) to (18) (90 μL) described above were dropped respectively therein and mixed while stirring each, to condense the nucleic acids. Thus, the peptide-nucleic-acid complexes were obtained. Then, the mixtures were each diluted with purified water to 25-fold to produce peptide-nucleic-acid solutions. Further, as references, samples containing only each respective peptide were also prepared without adding the nucleic acid solutions thereto.
The average particle diameter and Zeta potential of each of the peptide-nucleic-acid complexes were investigated using the peptide-nucleic-acid solutions. The average particle diameter and Zeta potential were measured using a zetasizer.

[2] = tested on: plasmid vector (pDNA); assay: Gel retardation assay: condensability and dissociation, Example 2; type: binding; conditions: 0.8% agarose gel, samples of any concentration (FIG. 6); for dissociation: PGA (+) sample; for condensability: PGA (-) sample
Protocol: The condensability of the nucleic acid by the peptide of the embodiment and the dissociation of the peptide and the nucleic acid were estimated by a gel retardation assay.
As samples for the condensability evaluation, 18 sets of 8.0 μL of 10 mM-HEPES (pH: 5.3) were prepared and 1.0 μL of the respective peptide-nucleic-acid solutions of Example 1 and […] were added thereto and mixed, thus preparing mixtures. As samples for the dissociation evaluation, 1.0 μL of peptide-nucleic-acid solutions and 1.0 μL of poly-glutamic-acid (PGA) solutions were added to 8.0 μL of 10 mM-HEPES solutions (pH: 5.3) and mixed, thereby preparing mixtures. After they were let stand still for 15 minutes at room temperature, 1.0 μL of an electrophoretic buffer (50%-sucrose solution) was added to each mixture, and they were mixed well, to carry out electrophoresis with a 0.8%-agarose gel. After the electrophoresis, the nucleic acid dyed with ethidium bromide was visualized by UV irradiation, and the nucleic acids condensed by the peptide and the nucleic acid dissociating with the peptide and moving into a gel were detected.
FIG. 6 is a photograph showing the agarose gel subjected to UV irradiation. Of two lanes indicated by the numbers of the respective samples, the left lane indicates the results of a PGA (−) sample (sample for the condensability evaluation) and the right lane for those of a PGA (+) sample (sample for the dissociation evaluation). When an integrated band with a large molecular weight, which strongly shines is observed in the left lane, it was evaluated as a high condensability. […] The mHP-1 and mHP-3 were excellent both in condensability and dissociation in the samples of any concentration. In particular, they were excellent in the peptide-nucleic-acid solutions (8) and (16).

[3] = Average particle diameter and Zeta potential of liposome (zetasizer), Example 3; type: physicochemical
Protocol: (§1) COATSOME/SS-20 (Nippon Oil & Fats), DOPE, cholesterol and DMG-PEG were dissolved into ethanol at a molar ratio of 5:3:1:0.3, to obtain a lipid solution. Two sets of lipid solutions (0.5 ml) put into tubes were prepared, and 0.5 ml of peptide-nucleic-acid solutions (8) (mHP-1) and (16) (mHP-3) of Example 1 were dropped thereto while stirring each lipid solution, thereby forming liposomes. 9 ml of 10 mM-HEPES (pH: 5.3) was added to each of the liposome solutions to make a total amount of 10 ml (each liposome solution will be referred to as “Complex” hereinafter). Further, on an assumption that the liposome is taken into an organism, and liposome solutions (which will be referred to as “HEPES replacement”) in which ethanol, which is the solvent of Complex is substituted by HEPES were produced. The HEPES replacements were produced by condensing each solution of Complex to 1.5 ml with an ultrafiltration film for 300 kDa, adding 8.5 ml of 100 mM-HEPES (pH: 7.4) to each, performing ultrafiltration, thereafter substituting the solvent with 10 mM-HEPES (pH: 7.4), and finally condensing to 0.5 ml. Further, the HEPES replacements were filtered for sterilization with a filter with a pore diameter of 0.45 μm to prepare solutions (which will be referred to as “0.45 μm” hereinafter).
(§2) The “peptide-nucleic-acid solution”, “HEPES substituent” and “0.45 micrometer”, each of which contain the protamine, mHP-1 or mHP-3 prepared as above were examined in terms of average particle diameter of liposome, Zeta potential and amount of encapsulation of plasmid. The average particle diameter and Zeta potential were measured using a zetasizer. The amount of encapsulation of plasmid was measured using a Quant-iT PicoGreen (registered trademark) dsDNA assay kit.

[4] = tested on: plasmid; assay: Amount of encapsulation of plasmid in liposome (Quant-iT PicoGreen dsDNA assay kit), Example 3; type: physicochemical
Protocol: as §1, §2

[5] = pDNA/peptide 1/0.7 (peptide conc. 2.1 mg/mL)
[6] = pDNA/peptide 1/0.8 (peptide conc. 2.4 mg/mL)
[7] = pDNA/peptide 1/0.9 (peptide conc. 2.7 mg/mL)
[8] = peptide solely, no nucleic acid (Reference)

Sequence	characteristics of condensing the nucleic acid [1]	Average particle diameter (zAve) [1, 5]	Zeta potential [1, 5]	Average particle diameter (zAve) [1, 6]	Zeta potential [1, 6]	Average particle diameter (zAve) [1, 7]	Zeta potential [1, 7]	Average particle diameter (zAve) [1, 8]	Zeta potential [1, 8]	dissociation [2]	condensability [2]	Average particle diameter (zAve) ([3]; Peptide-nucleic acid solution)	Zeta potential ([3]; Peptide-nucleic acid solution)	Average particle diameter (zAve) ([3]; liposome, 0.45 μm filtered)	Zeta potential ([3]; liposome, 0.45 μm filtered)	Average particle diameter (zAve) ([3]; liposome, HEPES substitution)	Zeta potential ([3]; liposome, HEPES substitution)	Plasmid inclusion amount ([4]; 0.45 μm filtered)	Plasmid inclusion amount ([4]; HEPES substitution)
RQRQRGGRRRRRR (Nucleic acid condensing peptide) [mHP-3]	excellent	135.8 nm	−28.1 mV	134.9 nm	−25.9 mV	148.2 nm	−28.3 mV	322.9 nm	17.0 mV	excellent	excellent	113.4 nm	−43.90 mV	218.2 nm	−2.95 mV	240.5 nm	−3.39 mV	84.14 µg/mL	96.94 µg/mL
RQRQRYYRQRQRGGRRRRRR (Nucleic acid condensing peptide) [mHP-1]	excellent	124.0 nm	−28.2 mV	133.4 nm	−26.7 mV	158.0 nm	−25.5 mV	444.0 nm	37.2 mV	excellent	excellent	121.4 nm	−44.50 mV	222.0 nm	−5.26 mV	254.1 nm	−11.30 mV	37.30 µg/mL	42.12 µg/mL
